Publication PMC10556141, “Yeast Rad52 is a homodecamer and possesses BRCA2-like bipartite Rad51 binding modes”

Experiments:
Rad52 [1] = biological target: T1, Rad52 (Saccharomyces cerevisiae, UniProt P06778 1-471); assay: fluorescence anisotropy; stoichiometric, too tight to fit; Anisotropy/FRET: 50 mM Tris-acetate pH 7.5, 50 mM KCl, 5 mM MgCl2, 10% glycerol, 1 mM DTT, 0.2 mg/mL BSA, 23 C; stopped flow: 50 mM Tris-acetate pH 7.5, 5 mM Mg; settings: protein: recombinant; chain copies: 10; label: 5'-FAM; single strand
Rad52ΔC [2] = biological target: T2, Rad52ΔC (Saccharomyces cerevisiae, UniProt P06778 1-217); assay: as above; settings: protein: recombinant; chain copies: 10; label: 5'-FAM; single strand
Rad52 [3] = biological target: T1, Rad52; assay: tryptophan quenching; high affinity site, two-site sequential model; Anisotropy/FRET: 50 mM Tris-acetate pH 7.5, 50 mM KCl, 5 mM MgCl2, 10% glycerol, 1 mM DTT, 0.2 mg/mL BSA, 23 C; stopped flow: 50 mM Tris-acetate pH 7.5, 5 mM Mg; settings: protein: recombinant; chain copies: 10; single strand
Rad52 [4] = biological target: T1, Rad52; assay: tryptophan quenching; lower affinity site, two-site sequential model; Anisotropy/FRET: 50 mM Tris-acetate pH 7.5, 50 mM KCl, 5 mM MgCl2, 10% glycerol, 1 mM DTT, 0.2 mg/mL BSA, 23 C; stopped flow: 50 mM Tris-acetate pH 7.5, 5 mM Mg; settings: protein: recombinant; chain copies: 10; single strand
Rad52 [5] = biological target: T1, Rad52; assay: tryptophan quenching; profile similar to (dT)84; Anisotropy/FRET: 50 mM Tris-acetate pH 7.5, 50 mM KCl, 5 mM MgCl2, 10% glycerol, 1 mM DTT, 0.2 mg/mL BSA, 23 C; stopped flow: 50 mM Tris-acetate pH 7.5, 5 mM Mg; settings: protein: recombinant; chain copies: 10; single strand
Rad52 [6] = biological target: T1, Rad52; assay: fluorescence anisotropy; preformed complex, reversible; Anisotropy/FRET: 50 mM Tris-acetate pH 7.5, 50 mM KCl, 5 mM MgCl2, 10% glycerol, 1 mM DTT, 0.2 mg/mL BSA, 23 C; stopped flow: 50 mM Tris-acetate pH 7.5, 5 mM Mg; settings: protein: recombinant; chain copies: 10; label: 5'-FAM; single strand
Rad52 [7] = biological target: T1, Rad52; assay: competition; competes with FAM-(dT)70; Anisotropy/FRET: 50 mM Tris-acetate pH 7.5, 50 mM KCl, 5 mM MgCl2, 10% glycerol, 1 mM DTT, 0.2 mg/mL BSA, 23 C; stopped flow: 50 mM Tris-acetate pH 7.5, 5 mM Mg; settings: protein: recombinant; chain copies: 10; single strand
Rad52 [8] = biological target: T1, Rad52; assay: stopped-flow FRET; Anisotropy/FRET: 50 mM Tris-acetate pH 7.5, 50 mM KCl, 5 mM MgCl2, 10% glycerol, 1 mM DTT, 0.2 mg/mL BSA, 23 C; stopped flow: 50 mM Tris-acetate pH 7.5, 5 mM Mg; settings: protein: recombinant; chain copies: 10; label: 5'-Cy5, 3'-Cy3; single strand
Rad52ΔC [9] = biological target: T2, Rad52ΔC; assay: as above; settings: protein: recombinant; chain copies: 10; label: 5'-Cy5, 3'-Cy3; single strand
Rad51 [10] = biological target: T3, Rad51 (Saccharomyces cerevisiae, UniProt P25454 1-400); assay: stopped-flow FRET; ATP; filament on Rad52-prebound DNA; Anisotropy/FRET: 50 mM Tris-acetate pH 7.5, 50 mM KCl, 5 mM MgCl2, 10% glycerol, 1 mM DTT, 0.2 mg/mL BSA, 23 C; stopped flow: 50 mM Tris-acetate pH 7.5, 5 mM Mg; settings: protein: recombinant; label: 5'-Cy5, 3'-Cy3; single strand
Rad52ΔC [11] = biological target: T2, Rad52ΔC; assay: AUC sedimentation velocity; Anisotropy/FRET: 50 mM Tris-acetate pH 7.5, 50 mM KCl, 5 mM MgCl2, 10% glycerol, 1 mM DTT, 0.2 mg/mL BSA, 23 C; stopped flow: 50 mM Tris-acetate pH 7.5, 5 mM Mg; settings: protein: recombinant; chain copies: 10; single strand
Rad52 [12] = biological target: T1, Rad52; assay: AUC sedimentation velocity; 1:1 decamer:DNA; Anisotropy/FRET: 50 mM Tris-acetate pH 7.5, 50 mM KCl, 5 mM MgCl2, 10% glycerol, 1 mM DTT, 0.2 mg/mL BSA, 23 C; stopped flow: 50 mM Tris-acetate pH 7.5, 5 mM Mg; settings: protein: recombinant; chain copies: 10; single strand
Rad52 [13] = biological target: T1, Rad52; assay: FRET; 45 nt sufficient to capture FRET; Anisotropy/FRET: 50 mM Tris-acetate pH 7.5, 50 mM KCl, 5 mM MgCl2, 10% glycerol, 1 mM DTT, 0.2 mg/mL BSA, 23 C; stopped flow: 50 mM Tris-acetate pH 7.5, 5 mM Mg; settings: protein: recombinant; chain copies: 10; label: 5'-Cy5, 3'-Cy3; single strand
Rad52 [14] = biological target: T1, Rad52; assay: FRET; steady-state wrapping; Anisotropy/FRET: 50 mM Tris-acetate pH 7.5, 50 mM KCl, 5 mM MgCl2, 10% glycerol, 1 mM DTT, 0.2 mg/mL BSA, 23 C; stopped flow: 50 mM Tris-acetate pH 7.5, 5 mM Mg; settings: protein: recombinant; chain copies: 10; label: 5'-Cy5, 3'-Cy3; single strand
Rad52ΔC [15] = biological target: T2, Rad52ΔC; assay: as above; settings: protein: recombinant; chain copies: 10; label: 5'-Cy5, 3'-Cy3; single strand
Rad51 [16] = biological target: T3, Rad51; assay: FRET; outcompetes prebound Rad52 or Rad52ΔC at steady state; Anisotropy/FRET: 50 mM Tris-acetate pH 7.5, 50 mM KCl, 5 mM MgCl2, 10% glycerol, 1 mM DTT, 0.2 mg/mL BSA, 23 C; stopped flow: 50 mM Tris-acetate pH 7.5, 5 mM Mg; settings: protein: recombinant; label: 5'-Cy5, 3'-Cy3; single strand

B1: FAM-(dT)35 (ssDNA)
DNA: TTTTTTTTTTTTTTTTTTTTTTTTTTTTTTTTTTT
B1: binds (Rad52 [1]); binds (Rad52ΔC [2]).

B2: (dT)84 (ssDNA)
DNA: TTTTTTTTTTTTTTTTTTTTTTTTTTTTTTTTTTTTTTTTTTTTTTTTTTTTTTTTTTTTTTTTTTTTTTTTTTTTTTTTTTTT
B2 was tested, and the Kd (Rad52 [3]) was 0.0013 nM and the Kd (Rad52 [4]) was 28 nM.

B3: (dT)54 (ssDNA)
DNA: TTTTTTTTTTTTTTTTTTTTTTTTTTTTTTTTTTTTTTTTTTTTTTTTTTTTTT
B3: binds (Rad52 [5]).

B4: FAM-(dT)70 (ssDNA)
DNA: TTTTTTTTTTTTTTTTTTTTTTTTTTTTTTTTTTTTTTTTTTTTTTTTTTTTTTTTTTTTTTTTTTTTTT
B4: binds (Rad52 [6]).

B5: (dT)70 unlabeled (ssDNA)
DNA: B4 DNA
B5: binds (Rad52 [7]).

B6: Cy5-(dT)97-Cy3 (ssDNA)
DNA: TTTTTTTTTTTTTTTTTTTTTTTTTTTTTTTTTTTTTTTTTTTTTTTTTTTTTTTTTTTTTTTTTTTTTTTTTTTTTTTTTTTTTTTTTTTTTTTTT
B6: binds (Rad52 [8]); binds (Rad52ΔC [9]); binds (Rad51 [10]).

B7: (dT)97 (ssDNA)
DNA: B6 DNA
B7: binds (Rad52ΔC [11]); binds (Rad52 [12]).

B8: Cy5-(dT)45-Cy3 (ssDNA)
DNA: TTTTTTTTTTTTTTTTTTTTTTTTTTTTTTTTTTTTTTTTTTTTT
B8: binds (Rad52 [13]).

B9: (dT)45 (ssDNA)
DNA: B8 DNA
B9: binds (Rad52ΔC [11]); binds (Rad52 [12]).

B10: Cy5-(dT)80-Cy3 (ssDNA)
DNA: TTTTTTTTTTTTTTTTTTTTTTTTTTTTTTTTTTTTTTTTTTTTTTTTTTTTTTTTTTTTTTTTTTTTTTTTTTTTTTTT
B10: binds (Rad52 [14]); binds (Rad52ΔC [15]); binds (Rad51 [16]).
